Data as given in patent US20100015637A1 (AbbVie / Abbott, published 2010).

Key:
[1] = biological target: human PlGF-1 comprising amino acids 1-137 produced in human embryonic kidney cells (human) (UniProt P49763); test: Format 2 …, capture MAb264, detection Pb264; sFlt-1 307 pmol/L (ratio 10)
[2] = biological target: human PlGF-1 comprising amino acids 1-137 produced in human embryonic kidney cells (human) (UniProt P49763); test: Format 3 Quantikine ELISA, capture MAb264, detection Pb264; sFlt-1 920 pmol/L (ratio 30)
[3] = biological target: human PlGF-1 comprising amino acids 1-137 produced in human embryonic kidney cells (human) (UniProt P49763); test: Format 3 Quantikine ELISA, capture MAb264, detection Pb264; sFlt-1 1227 pmol/L (ratio 40)
[4] = biological target: T1, CHO human PlGF-1 fragment (comprising amino acids 17-131; ATCC PTA-8540) (human, UniProt P49763 35-221); test: … sandwich, capture MAb826, detection pAb264; antigen 60 pg/mL
T1 sequence: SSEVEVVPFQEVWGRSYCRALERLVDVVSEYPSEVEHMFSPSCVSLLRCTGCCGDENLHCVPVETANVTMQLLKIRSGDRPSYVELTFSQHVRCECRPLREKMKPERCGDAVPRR

[5] = biological target: T2, CHO human PlGF-1 comprising amino acids 1-137 (human PlGF-1-His (1-131), CHO 6305) (human, UniProt P49763 19-221, N-glycans at N21 (completely glycosylated) and N89 (partially glycosylated)); test: as above
T2 construct: Mature human PlGF-1 with 6xHis tag (137 amino acids); also called CHO (1-137)
T2 sequence: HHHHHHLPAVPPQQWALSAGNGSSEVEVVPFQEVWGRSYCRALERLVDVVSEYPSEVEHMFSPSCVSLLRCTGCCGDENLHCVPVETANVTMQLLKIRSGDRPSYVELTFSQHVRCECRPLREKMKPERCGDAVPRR

[6] = biological target: T3, human PlGF-1 comprising amino acids 1-137 produced in human embryonic kidney cells (human, UniProt P49763 19-221); test: as above
T3 construct: Mature human PlGF-1 with 6xHis tag; also called HEK (1-137); full length HEK human PlGF-1 (1-137)
T3 sequence: T2 sequence

[7] = biological target: T4, human PlGF-1 fragment (comprising amino acids 17-131) produced in human embryonic kidney cells (human, UniProt P49763 35-221); test: as above
T4 sequence: T1 sequence

[8] = biological target: recombinant human PlGF-1 (comprising amino acids 1-131) expressed in E. coli (R&D Systems) (human) (UniProt P49763); test: … sandwich, capture MAb255, detection MAb826; antigen 0 pg/mL (blank)
[9] = biological target: T1, CHO human PlGF-1 fragment (comprising …); test: … sandwich, capture MAb255, detection pAb264; antigen 1500 pg/mL
[10] = biological target: T2, CHO human PlGF-1 comprising amino acids …; test: as above
[11] = biological target: T4, human PlGF-1 fragment (comprising amino …); test: as above
[12] = biological target: T1, CHO human PlGF-1 fragment (comprising …); test: … sandwich, capture MAb255, detection pAb264; antigen 0 pg/mL (blank)
[13] = biological target: T2, CHO human PlGF-1 comprising amino acids …; test: as above
[14] = biological target: T4, human PlGF-1 fragment (comprising amino …); test: as above
[15] = biological target: T1, CHO human PlGF-1 fragment (comprising …); test: … sandwich, capture MAb255, detection MAb826; antigen 0 pg/mL (blank)
Summary of the method: (§1)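 Human PlGF-1 antigen preparations, including CHO cell-expressed recombinant forms, spanned 0 to 1500 pg/mL in a sandwich immunoassay. A monoclonal anti-human PlGF-1 antibody, immobilized on magnetic microparticles through passive coating and EDAC cross-linking, captured the antigen, and an acridinium ester-labeled monoclonal anti-human PlGF-1 antibody detected it. Chemiluminescent relative light units (RLU) were recorded for every antigen level.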

[16] = biological target: T2, CHO human PlGF-1 comprising amino acids …; test: as above
Summary of the method: as §1

[17] = biological target: T3, human PlGF-1 comprising amino acids …; test: as above
Summary of the method: as §1

[18] = biological target: T4, human PlGF-1 fragment (comprising amino …); test: as above
Summary of the method: as §1

**Q.** For “native sFlt-1, isolated from human placental tissue (from UniProt P17948 27-687) (receptor)”, which % Inhibition [1] is on record?
**A.** Its % Inhibition is 81.8%.

**Q.** What about the PlGF-1 Measured [1] of the same molecule?
**A.** Its PlGF-1 Measured is 143 pg/mL.

**Q.** And the % Inhibition [2]?
**A.** Its % Inhibition is 45%.

**Q.** And the PlGF-1 Measured [2]?
**A.** Its PlGF-1 Measured is 476 pg/mL.

**Q.** And the % Inhibition [3]?
**A.** The % Inhibition was 51.8%.

**Q.** And the PlGF-1 Measured [3]?
**A.** The PlGF-1 Measured was 417 pg/mL.

B1: monoclonal antibody 2-826-335 (produced by murine hybridoma cell line 2-826-335, ATCC PTA-8539) (antibody, mouse IgG1, V domains shown)
VH: QVQLKQSGPGLVQPSQSLSITCTVSGFSLTTYGIHWVRQSPGKGLEWLGVMWSGGDTDYDAAFISRLSISKDNSKSQVFFKMNSLQANDTGIYYCARYRFYGMDYWGQGTSVTVSS
VL: AIQMTQSSSSFSVSLGDRVTITCKASEDIYNRFAWYQQKPGNAPRLLISGAASLEAGVPSRFSGSGSGQDYTLSITSLQTEDVATYYCQQYWSTPWTFGGGTKLEIKR
notes: also called MAb826
**Q.** B1 was tested. Which RLU [4] did it give?
**A.** Its RLU is 28200 RLU.

**Q.** What about the RLU [5] of the same molecule?
**A.** The RLU was 22200 RLU.

**Q.** What about the RLU [6] of the same molecule?
**A.** Its RLU is 47700 RLU.

**Q.** And the RLU [7]?
**A.** Its RLU is 36900 RLU.

B2: monoclonal antibody 1-255-713 (produced by murine hybridoma cell line 1-255-713, ATCC PTA-8536) (antibody, mouse IgG2a, V domains shown)
VH: QVHLQQSGAELMKPGASVKISCKATGYTFSSYWIEWVKQRPGHGLEWIGEILPGSVSNNFNEKFKDKATLTADPSSNTAYIQVSSLTSEDSAVYYCARSTGFYYGGNYFDHWGQGTTLAVSS
VL: DVVMTQTPLSLPVSPGDQASISCRSSQSLVHSNGHTYLHWYLQKPGQSPKLLIYKVSNRFSGVPDRVSGSGSGTDFTLKISRVEAEDLGVYFCSQSTHVPPTFGGGTKLEIKR
notes: also called MAb255
**Q.** With B2 as the molecule, how does the RLU [8] read?
**A.** The RLU was 6110 RLU.

**Q.** And the RLU [9]?
**A.** Its RLU is 1.25e+06 RLU.

**Q.** And the RLU [10]?
**A.** Its RLU is 1.05e+06 RLU.

**Q.** What about the RLU [11] of the same molecule?
**A.** Its RLU is 1.62e+06 RLU.

**Q.** And the RLU [12]?
**A.** The RLU was 14400 RLU.

**Q.** What about the RLU [13] of the same molecule?
**A.** Its RLU is 14500 RLU.

**Q.** What about the RLU [14] of the same molecule?
**A.** The RLU was 14200 RLU.

**Q.** What about the RLU [15] of the same molecule?
**A.** Its RLU is 5940 RLU.

**Q.** What about the RLU [16] of the same molecule?
**A.** Its RLU is 6270 RLU.

**Q.** And the RLU [17]?
**A.** The RLU was 6110 RLU.

**Q.** What about the RLU [18] of the same molecule?
**A.** The RLU was 5760 RLU.
